Values of other authors in paper PMC5744648.
Blank lines part the entries; values can stand above or below the substance they belong to.

Tests used:
[1] = target: CMKLR1 (Chemerin1) (Homo sapiens) (UniProt Q99788); experiment: radioligand
[2] = target: GPR1 (Chemerin2) (Homo sapiens) (UniProt P46091); experiment: radioligand binding
[3] = target: CMKLR1 (Chemerin1) (Mus musculus) (UniProt P97468); experiment: radioligand binding
[4] = target: GPR1 (Chemerin2) (Homo sapiens) (UniProt P46091); experiment: radioligand

Chain of GPR1 (Chemerin2) (Homo sapiens) (P46091 whole entry): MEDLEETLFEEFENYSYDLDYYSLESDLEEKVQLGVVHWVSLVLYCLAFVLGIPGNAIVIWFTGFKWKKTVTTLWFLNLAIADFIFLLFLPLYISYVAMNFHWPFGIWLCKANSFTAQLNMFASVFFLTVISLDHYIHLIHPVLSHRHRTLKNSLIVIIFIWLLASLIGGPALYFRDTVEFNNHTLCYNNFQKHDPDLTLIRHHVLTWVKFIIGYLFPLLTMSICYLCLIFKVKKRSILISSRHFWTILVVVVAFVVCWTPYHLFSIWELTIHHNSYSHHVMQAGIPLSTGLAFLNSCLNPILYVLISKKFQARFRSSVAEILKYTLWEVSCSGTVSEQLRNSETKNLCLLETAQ
Chain of Chemerin 21-157 (Q99969 21-157): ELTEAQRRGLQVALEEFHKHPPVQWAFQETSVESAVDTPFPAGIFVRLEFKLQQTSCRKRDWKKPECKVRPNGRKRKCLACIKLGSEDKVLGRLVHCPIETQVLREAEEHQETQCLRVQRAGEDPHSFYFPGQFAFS
Chain of CMKLR1 (Chemerin1) (Homo sapiens) (Q99788 whole entry): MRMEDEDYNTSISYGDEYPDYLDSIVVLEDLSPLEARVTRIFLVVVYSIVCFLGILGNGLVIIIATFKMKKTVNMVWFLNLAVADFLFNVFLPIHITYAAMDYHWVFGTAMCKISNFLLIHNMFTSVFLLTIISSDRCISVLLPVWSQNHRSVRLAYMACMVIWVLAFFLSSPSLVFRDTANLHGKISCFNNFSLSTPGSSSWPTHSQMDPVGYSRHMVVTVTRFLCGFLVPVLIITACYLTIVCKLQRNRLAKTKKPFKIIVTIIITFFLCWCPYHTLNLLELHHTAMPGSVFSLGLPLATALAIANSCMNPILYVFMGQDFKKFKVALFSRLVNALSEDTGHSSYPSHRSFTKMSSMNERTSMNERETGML
Chain of CMKLR1 (Chemerin1) (Mus musculus) (P97468 whole entry): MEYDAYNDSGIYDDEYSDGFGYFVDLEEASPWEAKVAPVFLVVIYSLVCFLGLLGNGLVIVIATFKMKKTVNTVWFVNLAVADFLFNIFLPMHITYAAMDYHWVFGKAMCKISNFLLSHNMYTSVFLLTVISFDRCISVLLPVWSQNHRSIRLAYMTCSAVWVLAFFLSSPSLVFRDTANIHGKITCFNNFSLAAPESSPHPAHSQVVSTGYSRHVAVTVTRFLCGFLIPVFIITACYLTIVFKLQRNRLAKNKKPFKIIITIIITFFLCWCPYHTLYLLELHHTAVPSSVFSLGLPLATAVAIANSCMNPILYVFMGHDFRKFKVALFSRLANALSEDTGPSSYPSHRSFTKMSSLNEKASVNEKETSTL
Chain of Chemerin C9 peptide 149-157 (Q99969 whole entry, looked up, tested part not stated): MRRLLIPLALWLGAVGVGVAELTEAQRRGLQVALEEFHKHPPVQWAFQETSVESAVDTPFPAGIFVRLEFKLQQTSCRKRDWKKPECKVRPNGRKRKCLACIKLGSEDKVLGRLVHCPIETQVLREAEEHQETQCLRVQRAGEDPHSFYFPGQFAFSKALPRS
Chain of Chemerin 21-148 (Q99969 21-148): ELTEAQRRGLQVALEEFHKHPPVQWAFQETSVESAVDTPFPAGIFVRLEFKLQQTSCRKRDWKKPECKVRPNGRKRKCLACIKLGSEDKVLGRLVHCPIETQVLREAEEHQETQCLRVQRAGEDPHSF

- Kd [1]: 22 nM
Substance: Tyr-[Phe149]-chemerin146-157 146-157 (from UniProt Q99969)

- Kd [2]: 0.21 nM
- Kd [1]: 0.88 nM
Substance: Chemerin 21-157 (from UniProt Q99969)

- Kd [3]: 1.2 nM
Substance: Chemerin 21-148 (from UniProt Q99969)

- Kd [4]: 5.3 nM
Substance: Chemerin C9 peptide 149-157 (from UniProt Q99969)
